Positions count from the first letter of the chain named.
T1: purified human activated C1s protein, two-chain form (Homo sapiens, UniProt P09871 16-688)
T1 construct: Purified protein bought from EMD Millipore; Biotin-labeled in the clone screen; also called active C1s; native C1s protein
T1 sequence: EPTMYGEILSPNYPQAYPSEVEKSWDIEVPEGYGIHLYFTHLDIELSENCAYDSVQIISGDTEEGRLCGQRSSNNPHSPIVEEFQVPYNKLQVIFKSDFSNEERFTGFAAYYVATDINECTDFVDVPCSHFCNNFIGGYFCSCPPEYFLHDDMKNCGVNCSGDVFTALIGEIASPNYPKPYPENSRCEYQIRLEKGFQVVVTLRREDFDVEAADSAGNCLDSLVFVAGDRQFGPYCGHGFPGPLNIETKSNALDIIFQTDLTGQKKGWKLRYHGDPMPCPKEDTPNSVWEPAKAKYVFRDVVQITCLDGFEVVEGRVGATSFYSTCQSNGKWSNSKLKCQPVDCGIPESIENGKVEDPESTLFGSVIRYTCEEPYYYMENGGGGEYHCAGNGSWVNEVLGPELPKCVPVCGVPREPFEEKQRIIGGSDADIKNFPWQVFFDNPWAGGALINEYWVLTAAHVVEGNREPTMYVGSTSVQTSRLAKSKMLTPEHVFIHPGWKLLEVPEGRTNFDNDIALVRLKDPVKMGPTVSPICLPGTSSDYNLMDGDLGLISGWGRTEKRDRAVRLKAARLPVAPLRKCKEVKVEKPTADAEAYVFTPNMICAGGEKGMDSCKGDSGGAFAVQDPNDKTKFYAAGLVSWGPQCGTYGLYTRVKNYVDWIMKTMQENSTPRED

T2: Pro-C1s
T2 construct: also called purified pro-C1s protein
T2 chain: T1 sequence

T3: recombinant human complement component C1s (rhC1s) (human, UniProt P09871 16-688)
T3 sequence (looked up): T1 sequence

B1: antibody IPN-M18 (antibody, V domains shown)
VH: EVQLQQSGPELVKPGASVKISCKASGYSFTGYYIHWVKQSPEKSLEWIGEINPTTNDTTYNQKFKAKATLTVDKSSNTAYMQLKSLTSEDSAVYYCSRDISGPAWFAYWGQGTLVTVSA
VL: DIVLTQTTAIMSASPGEKVTMTCSASSSISYMYWFQQKPGTSPKRWIYDTSKLASGVPARFSGSGSGTSYSLTISTMEAEDAATYYCHQRSSDPTFGGGTKLEINR
notes: Mouse monoclonal antibody (NZBW hybridoma)
B2: antibody IPN-M9 (antibody, V domains shown)
VH: QVQLQQPGAELVRPGASVKLSCKVSGYTFTRYWMHWVKQRPGQGLEWIGEINPSNSDTDYNEEFKSKATLTVDKSSSTAYMHLSSLTSEDSAVYYCTIDDSAYGWFAYWGQGTLVTVSA
VL: DIVMTQSPAIMSASPGERVTMTCSASSSISYMHWYHQKPGTSPKRWIYDTSKLASGVPARFSGSGSGTSYSLTISSMEAEDAATYYCHQRSSFPTFGAGTKLELK
notes: as for B1
B3: antibody IPN-M24 (antibody, V domains shown)
VH: EVKLQQSGAELVRPGVSVKISCKVSGYTFTDYAMHCVKQSHAKSLEWIGVISIYNGDASYNQKFKDKATMTVDKSSSTSYMDLARLTSEESAVYNCVREAPYLITTVFYAMDYWGQGTSVTVSS
VL: B2 VL with R18K, S26N, H36Q, A59T, S92F, F93Y, P94L, A98S, L104I
notes: as for B1
B4: antibody IPN-M29 (antibody, V domains shown)
VH: EVQLQQSGPELVKPGASVKISCKASGYSFTGFYMQWVKQSPEKNLEWIGEINPTTGDETYNQKFQAKATLTVDKSSSTAYMQLKSLTSEDSAVYFCASDFYDGSFAWFEYWGKDYLTVSA
VL: B2 VL with M4L, A9V, R18K, M32I, H36Q, F93Y, P94L, A98S, L104I
notes: as for B1
B5: antibody IPN-M33 (antibody, V domains shown)
VH: QVKLQQSGPELVKPGTSVRISCKTSGYSFTGYYMHWVKQSPEKSLEWIGEINPSIGDITYNQRFKAKATLTVDKSSSTAYMQLKSLTSEDSAVYYCASDYYGGGFAWFAYWGQGTLVTVSA
VL: B2 VL with P15S, R18K, S30N, H36Q, A82T, S92D, F93S, P94L, A98S, L104I
notes: as for B1
B6: antibody IPN-M23 (antibody, V domains shown)
VH: B2 VH with A102V
VL: B2 VL with S12F, H33P, H36P, T41P, S66F, S69F, T84P, T95P
notes: as for B1
B7: antibody IPN-M10 (antibody, V domains shown)
VH: B2 VH with A102V
VL: B2 VL with M4I
notes: as for B1
B8: antibody IPN-M27 (antibody, V domains shown)
VH: B2 VH with P7S, S85N
VL: B2 VL with M4L, P8T, T73A
notes: as for B1
B9: antibody IPN-M1 (antibody, V domains shown)
VH: EVQLQQSGAELVRPGASVKLSCTASGFNIKDDYIHWVKQRPEQGLEWIGRIDPADDHTKYAPKFQDKATMTADTSSNTACLQLNSLTSEDTAVYYCAIYGSGWAWFPYWGQGTLVSVSA
VL: DIVLTQSTDYLAVSLGQRATISCKASQSVDYDGDSYMNWYQQKPGQPPKLLIYAASNLESGIPARFSGSGSGTDFTLNIHPVEEEDAATYYCQQSNEDPWTFGGGTKLEIK
notes: Mouse monoclonal antibody (NZBW hybridoma); of the 17, thirteen were IgG2a, one IgG2b, three IgG1; Same VL and VH as IPN-M3 and IPN-M13
B10: antibody IPN-M8 (antibody, V domains shown)
VH: EVKLQQSGAELVRPGASVKLSCTASGFNIKDDYIHWVKQRPEQGLEWIGRIDPADGHTKYAPKFQVKATITADTSSNTAYLQLSSLTSEDTAVYYCARYGYGREVFDYWGQGTTLTVSS
VL: B9 VL with T8P, D9A, Y10S, P44T, L50I, A54D, T89I
notes: Mouse monoclonal antibody (NZBW hybridoma); Same VL and VH as IPN-M2
B11: antibody IPN-M2 (antibody, V domains shown)
VH: B10 VH
VL: B9 VL with T8P, D9A, Y10S, P44T, L50I, A54D, T89I
notes: Mouse monoclonal antibody (NZBW hybridoma); Same VL and VH as IPN-M8
B12: antibody IPN-M3 (antibody, V domains shown)
VH: B9 VH
VL: B9 VL
notes: Mouse monoclonal antibody (NZBW hybridoma); Same VL and VH as IPN-M1 and IPN-M13
B13: antibody IPN-M15 (antibody, V domains shown)
VH: B9 VH with Q3K, Q5E
VL: B9 VL with D1F, I2A, V3L, L4M, A64T, S71F, T106P
notes: as for B1
B14: antibody IPN-M14 (antibody, V domains shown)
VH: B10 VH
VL: DIVLTQFPTFLAVFLGQRAPISCKASQSVDYDGDSYMNWFQQKTGQPPKILIYDASNLEFGIPTRFSGSGFGTDFPLNIHPVEEEDAAIYFCQQSNEDPWTFGGGPKLEIK
notes: as for B1
B15: antibody IPN-M28 (antibody, V domains shown)
VH: B9 VH
VL: B9 VL with S7T, T8P
notes: as for B1

molecular target: T1, purified human activated C1s protein, …; assay: bio-layer interferometry (BLI), kinetic analysis

Kd | koff | kon | Binder
1.98 nM | 0.00102 s⁻¹ | 517000 M⁻¹ s⁻¹ | B1
0.608 nM | 0.000361 s⁻¹ | 594000 M⁻¹ s⁻¹ | B2
1.01 nM | 0.000499 s⁻¹ | 492000 M⁻¹ s⁻¹ | B3
1.28 nM | 0.000594 s⁻¹ | 463000 M⁻¹ s⁻¹ | B4
0.329 nM | 0.000154 s⁻¹ | 467000 M⁻¹ s⁻¹ | B5
0.57 nM | 0.000353 s⁻¹ | 619000 M⁻¹ s⁻¹ | B6
0.607 nM | 0.000369 s⁻¹ | 608000 M⁻¹ s⁻¹ | B7
0.593 nM | 0.000394 s⁻¹ | 664000 M⁻¹ s⁻¹ | B8
0.26 nM | 0.000213 s⁻¹ | 817000 M⁻¹ s⁻¹ | B9
0.213 nM | 0.000234 s⁻¹ | 1.12e+06 M⁻¹ s⁻¹ | B10
0.291 nM | 0.000279 s⁻¹ | 957000 M⁻¹ s⁻¹ | B11
0.187 nM | 0.000158 s⁻¹ | 845000 M⁻¹ s⁻¹ | B12
0.172 nM | 0.000149 s⁻¹ | 858000 M⁻¹ s⁻¹ | B13
0.207 nM | 0.000231 s⁻¹ | 1.12e+06 M⁻¹ s⁻¹ | B14
0.236 nM | 0.000215 s⁻¹ | 914000 M⁻¹ s⁻¹ | B15

Molecular target: T2, Pro-C1s
Assay: bio-layer interferometry (BLI), kinetic analysis

Kd | koff | kon | Binder
1.89 nM | 0.000395 s⁻¹ | 209000 M⁻¹ s⁻¹ | B1
4.69 nM | 0.000299 s⁻¹ | 63700 M⁻¹ s⁻¹ | B2
4.46 nM | 0.00036 s⁻¹ | 80800 M⁻¹ s⁻¹ | B3
5.55 nM | 0.000408 s⁻¹ | 73600 M⁻¹ s⁻¹ | B4
0.3 nM | 2.52e-05 s⁻¹ | 83800 M⁻¹ s⁻¹ | B5
7.17 nM | 0.000347 s⁻¹ | 48400 M⁻¹ s⁻¹ | B6
7.98 nM | 0.000339 s⁻¹ | 42500 M⁻¹ s⁻¹ | B7
11.1 nM | 0.000283 s⁻¹ | 25400 M⁻¹ s⁻¹ | B8
92.5 nM | 0.000392 s⁻¹ | 4120 M⁻¹ s⁻¹ | B9
19.7 nM | 0.000178 s⁻¹ | 9080 M⁻¹ s⁻¹ | B10
42.3 nM | 0.000197 s⁻¹ | 4660 M⁻¹ s⁻¹ | B11
102 nM | 0.00041 s⁻¹ | 4040 M⁻¹ s⁻¹ | B12
3.37 nM | 0.000194 s⁻¹ | 57500 M⁻¹ s⁻¹ | B13
13.5 nM | 0.000223 s⁻¹ | 16500 M⁻¹ s⁻¹ | B14
16.7 nM | 0.000178 s⁻¹ | 10600 M⁻¹ s⁻¹ | B15

molecular target: T3, recombinant human complement component …; assay: cell-based or functional assay

Inhibition of C1s Protease Activity (%), single point with clone supernatant, relative to 100 nM nafamostat | Binder
68% | B1
69% | B2
68% | B3
73% | B4
97% | B5
74% | B6
67% | B7
64% | B8
79% | B9
100% | B10
100% | B11
89% | B12
100% | B13
100% | B14
92% | B15

molecular target: T3, recombinant human complement component …; assay: cell-based or functional assay; remark: another data set of the same source

inhibition of C1s protease activity (relative to nafamostat) | Binder
> 50% | B1
> 50% | B2
> 50% | B3
> 50% | B4
> 50% | B5
> 50% | B6
> 50% | B7
> 50% | B8
> 50% | B9
> 50% | B10
> 50% | B11
> 50% | B12
> 50% | B13
> 50% | B14
> 50% | B15

— US20200079876A1 (BIOVERATIV USA, published 2020)
